According to paper PMC4384708, “Molecular imaging of angiogenesis after myocardial infarction by ^111In-DTPA-cNGR and ^99mTc-sestamibi dual-isotope myocardial SPECT” (EJNMMI Research, 2015):
Bridge positions count the residues as written; N and C are the ends. Peptide text beside a SMILES is read from it. * marks the point of attachment. X1 = N[C@@H](CSC1CC(=O)N(CC2CCC(C(=O)*)CC2)C1=O)C(=O)NCCCC[C@@H](C(=O)O)N(CCN(CC(=O)O)CC(=O)O)CCN(CC(=O)O)CC(=O)O

Assays:
[1] = Matrigel plug model, ex vivo SPECT of explanted Matrigels; assay type: in vivo; conditions: male, Swiss, mouse, total radioactivity, six mice, mean ± SEM
Protocol: (§1) MI was induced in 10- to 12-week old male Swiss mice by ligation of the left anterior descending coronary artery (LAD) (n = 7), as previously described. The angiogenesis imaging protocol was performed 7 days after the LAD ligation. A group of non-operated male Swiss mice (n = 5) was used as control. A variable number of animals were available for analysis per experiment. For SPECT scans, seven MI mice and five control mice were used while for biodistribution purposes ≥5 MI mice and ≥4 control mice were used. Furthermore, a group of six 10- to 12-week old male Swiss mice were bilaterally, subcutaneously implanted in the flanks with Matrigel (Table 1). […] All animals were held under the guidelines of the animal care facility (Maastricht University). All animal experiments were approved by the Committee for Animal Welfare of Maastricht University.
(§2) The PMOD 2.95 cardiac tool PCARD (PMOD Technologies, Zürich, Switzerland) was used to segment the heart in the 17-segment model according to the American Heart Association (AHA) guidelines. For both the ^99mTc-sestamibi and ^111In-DTPA-cNGR images, the uptake was measured for each segment and expressed as mean standardised uptake value (SUVmean) using equation (b).b SUV=SPECTcountspervoxel×CF/VvMBq/ml×Bodyweightg/InjecteddoseMBq

in vivo [2] = conditions: 2 h p.i., gamma counting, mean ± SEM; for urinary excretion (urine radioactivity): i.v.; for tissue uptake at 2 h: male, Swiss, mouse, iv, total radioactivity
Protocol: In order to quantify the absolute uptake of ^111In-DTPA-cNGR in the different heart pieces, gamma counting was performed using an automated NaI(Tl) gamma counter (Wallac Wizard, Turku, Finland). Additionally, we dissected the vital organs of the mice to study overall biodistribution. The uptake of ^111In-DTPA-cNGR was determined 2 h post-injection (p.i.) for both MI (n ≥ 5) and control animals (n ≥ 4). Data were expressed as percentage of injected dose per gram tissue (%ID/g). Urinal excretion was expressed as %ID.

in vivo [3] = conditions: male, Swiss, mouse, heart, iv, mean ± S.E.M.
Protocol: as §1
Mice were anesthetised with isoflurane (induction 2.5%; maintenance; 1.5%), a catheter was placed in the tail vein and the animals were positioned in the micro-SPECT camera (MiLabs, Utrecht, The Netherlands).
U-SPECT-II reconstruction software version 2.38 (MiLabs, Utrecht, The Netherlands) was used to reconstruct images. ^99mTc and ^111In images were reconstructed by selecting the photopeak (PP) and background (BG) windows as indicated in Figure 1.
To allow quantification of radiotracer uptake in vivo, conversion factors (CFs) were determined for the 0.6-mm collimator system in a representative phantom (20 ml) for ^99mTc and/or ^111In. During the SPECT reconstruction, the total amount of counts was distributed over the different voxels, resulting in a counts/voxel expression for the average concentration of counts. Taking into account the voxel volume (Vv), the CFs are calculated using equation (a):a ConversionfactorMBq=ActivityconcentrationMBq/ml/SPECTcountspervoxel/Vvml
as §2
For body weight, we assumed that 1 g of body weight equalled 1 ml.

Q: For CC(=O)N[C@H]1CSSC[C@@H](C(=O)NCC(=O)NCC(=O)N[C@@H](CCCCNC(=O)C2CCC(CN3C(=O)CC(SC[C@H](N)C(=O)NCCCC[C@@H](C(=O)O)N(CCN(CC(=O)O)CC(=O)O)CCN(CC(=O)O)CC(=O)O)C3=O)CC2)C(N)=O)NC(=O)[C@H](CCCNC(=N)N)NC(=O)CNC(=O)[C@H](CC(N)=O)NC1=O (stereo partly drawn) [^111In-DTPA-cNGR, metal not drawn] (Ac-CNGRCGGK(X1)-NH2; disulfide 1-5), which SUV ([1]; explanted control (PBS) Matrigel plug, control (PBS) Matrigels) is on record?
A: 0.000222 SUV

Q: And the SUV ([1]; explanted hFGF2-supplemented Matrigel plug, hFGF2-supplemented Matrigels)?
A: 0.000824 SUV

Q: And the “urinary excretion (urine radioactivity)” value (in vivo [2]; MI mice (n ≥ 5))?
A: 82.29 ± 4.87 %ID

Q: What about the “urinary excretion (urine radioactivity)” value (in vivo [2]; healthy control mice (n ≥ 4)) of the same compound?
A: 92.5 ± 1.17 %ID

Q: What about the tissue uptake at 2 h (in vivo [2]; heart, apical region, uptake in the apical region of the heart, infarcted hearts, MI mice (n ≥ 5)) of the same compound?
A: 0.16 ± 0.0542 %ID/g

Q: What about the tissue uptake at 2 h (in vivo [2]; heart, apical region, uptake in the apical region of the heart, non-infarcted hearts, healthy control mice (n ≥ 4)) of the same compound?
A: 0.02 ± 0.005 %ID/g

Q: What about the tissue uptake at 2 h (in vivo [2]; kidney, kidney uptake, MI mice (n ≥ 5)) of the same compound?
A: 2.73 ± 0.42 %ID/g

Q: What about the tissue uptake at 2 h (in vivo [2]; kidney, kidney uptake, healthy control mice (n ≥ 4)) of the same compound?
A: 4.04 ± 0.41 %ID/g

Q: What about the SUV (in vivo [3]; AHA segment 5 (basal inferolateral), segment 5. Basal inferolateral, MI mice n = 7, 7 days after LAD ligation, in vivo SPECT) of the same compound?
A: 0.23 ± 0.03 SUV

Q: And the SUV (in vivo [3]; AHA segment 5 (basal inferolateral), segment 5. Basal inferolateral, healthy control mice n = 5, in vivo SPECT)?
A: 0.14 ± 0.04 SUV

Q: And the SUV (in vivo [3]; segment 1 basal anterior, total radioactivity, healthy control mice n = 5, in vivo SPECT)?
A: 0.16 ± 0.05 SUV

Q: What about the SUV (in vivo [3]; segment 1 basal anterior, total radioactivity, segment 1. Basal anterior, MI mice n = 7, 7 days after LAD ligation, in vivo SPECT) of the same compound?
A: 0.24 ± 0.04 SUV

Q: And the SUV (in vivo [3]; segment 2 basal anteroseptal, total radioactivity, healthy control mice n = 5, in vivo SPECT)?
A: 0.16 ± 0.05 SUV

Q: What about the SUV (in vivo [3]; segment 2 basal anteroseptal, total radioactivity, segment 2. Basal anteroseptal, MI mice n = 7, 7 days after LAD ligation, in vivo SPECT) of the same compound?
A: 0.21 ± 0.03 SUV

Q: And the SUV (in vivo [3]; segment 3 basal inferoseptal, total radioactivity, healthy control mice n = 5, in vivo SPECT)?
A: 0.13 ± 0.06 SUV

Q: What about the SUV (in vivo [3]; segment 3 basal inferoseptal, total radioactivity, segment 3. Basal inferoseptal, MI mice n = 7, 7 days after LAD ligation, in vivo SPECT) of the same compound?
A: 0.2 ± 0.02 SUV

Q: What about the SUV (in vivo [3]; segment 4 basal inferior, total radioactivity, healthy control mice n = 5, in vivo SPECT) of the same compound?
A: 0.15 ± 0.05 SUV

Q: And the SUV (in vivo [3]; segment 4 basal inferior, total radioactivity, segment 4. Basal inferior, MI mice n = 7, 7 days after LAD ligation, in vivo SPECT)?
A: 0.23 ± 0.03 SUV

Q: What about the SUV (in vivo [3]; segment 6 basal anterolateral, total radioactivity, healthy control mice n = 5, in vivo SPECT) of the same compound?
A: 0.18 ± 0.06 SUV

Q: What about the SUV (in vivo [3]; segment 6 basal anterolateral, total radioactivity, segment 6. Basal anterolateral, MI mice n = 7, 7 days after LAD ligation, in vivo SPECT) of the same compound?
A: 0.26 ± 0.04 SUV

Q: What about the SUV (in vivo [3]; segment 7 mid anterior, total radioactivity, healthy control mice n = 5, in vivo SPECT) of the same compound?
A: 0.15 ± 0.05 SUV

Q: What about the SUV (in vivo [3]; segment 7 mid anterior, total radioactivity, segment 7. Mid anterior, MI mice n = 7, 7 days after LAD ligation, in vivo SPECT) of the same compound?
A: 0.21 ± 0.02 SUV

Q: What about the SUV (in vivo [3]; segment 8 mid anteroseptal, total radioactivity, healthy control mice n = 5, in vivo SPECT) of the same compound?
A: 0.14 ± 0.06 SUV

Q: And the SUV (in vivo [3]; segment 8 mid anteroseptal, total radioactivity, segment 8. Mid anteroseptal, MI mice n = 7, 7 days after LAD ligation, in vivo SPECT)?
A: 0.2 ± 0.02 SUV

Q: What about the SUV (in vivo [3]; segment 9 mid inferoseptal, total radioactivity, healthy control mice n = 5, in vivo SPECT) of the same compound?
A: 0.12 ± 0.06 SUV

Q: What about the SUV (in vivo [3]; segment 9 mid inferoseptal, total radioactivity, segment 9. Mid inferoseptal, MI mice n = 7, 7 days after LAD ligation, in vivo SPECT) of the same compound?
A: 0.18 ± 0.03 SUV

Q: And the SUV (in vivo [3]; segment 10 mid inferior, total radioactivity, healthy control mice n = 5, in vivo SPECT)?
A: 0.12 ± 0.05 SUV

Q: And the SUV (in vivo [3]; segment 10 mid inferior, total radioactivity, segment 10. Mid inferior, MI mice n = 7, 7 days after LAD ligation, in vivo SPECT)?
A: 0.17 ± 0.03 SUV

Q: What about the SUV (in vivo [3]; segment 11 mid inferolateral, total radioactivity, healthy control mice n = 5, in vivo SPECT) of the same compound?
A: 0.11 ± 0.04 SUV

Q: What about the SUV (in vivo [3]; segment 11 mid inferolateral, total radioactivity, segment 11. Mid inferolateral, MI mice n = 7, 7 days after LAD ligation, in vivo SPECT) of the same compound?
A: 0.2 ± 0.03 SUV

Q: And the SUV (in vivo [3]; segment 12 mid anterolateral, total radioactivity, healthy control mice n = 5, in vivo SPECT)?
A: 0.15 ± 0.05 SUV

Q: What about the SUV (in vivo [3]; segment 12 mid anterolateral, total radioactivity, segment 12. Mid anterolateral, MI mice n = 7, 7 days after LAD ligation, in vivo SPECT) of the same compound?
A: 0.24 ± 0.01 SUV

Q: What about the SUV (in vivo [3]; segment 13 apical anterior, total radioactivity, healthy control mice n = 5, in vivo SPECT) of the same compound?
A: 0.11 ± 0.03 SUV

Q: What about the SUV (in vivo [3]; segment 13 apical anterior, total radioactivity, segment 13. Apical anterior, MI mice n = 7, 7 days after LAD ligation, in vivo SPECT) of the same compound?
A: 0.21 ± 0.02 SUV

Q: And the SUV (in vivo [3]; segment 14 apical septal, total radioactivity, healthy control mice n = 5, in vivo SPECT)?
A: 0.12 ± 0.04 SUV

Q: And the SUV (in vivo [3]; segment 14 apical septal, total radioactivity, segment 14. Apical septal, MI mice n = 7, 7 days after LAD ligation, in vivo SPECT)?
A: 0.2 ± 0.03 SUV

Q: And the SUV (in vivo [3]; segment 15 apical inferior, total radioactivity, healthy control mice n = 5, in vivo SPECT)?
A: 0.1 ± 0.03 SUV

Q: What about the SUV (in vivo [3]; segment 15 apical inferior, total radioactivity, segment 15. Apical inferior, MI mice n = 7, 7 days after LAD ligation, in vivo SPECT) of the same compound?
A: 0.18 ± 0.03 SUV

Q: What about the SUV (in vivo [3]; segment 16 apical lateral, total radioactivity, healthy control mice n = 5, in vivo SPECT) of the same compound?
A: 0.14 ± 0.04 SUV

Q: What about the SUV (in vivo [3]; segment 16 apical lateral, total radioactivity, segment 16. Apical lateral, MI mice n = 7, 7 days after LAD ligation, in vivo SPECT) of the same compound?
A: 0.22 ± 0.02 SUV

Q: And the SUV (in vivo [3]; segment 17 apex, total radioactivity, healthy control mice n = 5, in vivo SPECT)?
A: 0.1 ± 0.03 SUV

Q: And the SUV (in vivo [3]; segment 17 apex, total radioactivity, segment 17. Apex, MI mice n = 7, 7 days after LAD ligation, in vivo SPECT)?
A: 0.2 ± 0.03 SUV
